Assay results: patent US20140271653A1 (Regeneron, published 2014)
Like-named read-outs stand apart in the source and are kept apart here.

What was measured:
RSV-F.mmh [1] = molecular target: T1, RSV-F.mmh (Respiratory Syncytial Virus); assay: SPR (Biacore), mAb captured via Fc, soluble RSV-F.mmh injected, 25 C
T1 construct: also called recombinant RSV-F; soluble monomeric RSV-F
Protocol: Measurements were conducted on a Biacore 4000 or T-200 instrument. […] All Biacore binding studies were performed in HBST running buffer (0.01 M HEPES pH 7.4, 0.15 M NaCl, 3 mM EDTA, 0.005% v/v surfactant P20). Different concentrations of RSV-F.mmh prepared in HBST running buffer were injected over the anti-RSV-F monoclonal antibody captured surface at a flow rate of 30 μl/min (Biacore 4000) or at a flow rate of 50 μl/min (Biacore T-200) and the association of RSV-F.mmh to captured monoclonal antibody was monitored for 6 min or 3 min respectively. The dissociation of RSV-F.mmh from the monoclonal antibody in HBST running buffer was monitored for 8-10 min at 25° C. Kinetic association (kₐ) and dissociation (kd) rate constants were determined by processing and fitting the data to a 1:1 binding model using Scrubber 2.0 curve fitting software. Binding dissociation equilibrium constants (KD) and dissociative half-lives (t½) were calculated from the kinetic rate constants as: KD (M)=kd/kₐ; and t_{1/2} (min)=(ln 2/(60*kd).

[2] = molecular target: T2, RSV-F of RSV subtype A strain A2 (1540) (respiratory syncytial virus subtype A, …, UniProt P03420 26-574); assay: cell-based or functional assay
RSV-F.mmh [3] = molecular target: T1, RSV-F.mmh; assay: SPR (Biacore), mAb captured via Fc, soluble RSV-F.mmh injected, 25 C; remark: listed apart in the source
[4] = molecular target: T3, RSV-F of RSV subtype A strain Long (respiratory syncytial virus subtype A, …, UniProt P12568 26-574); assay: cell-based or functional assay
[5] = molecular target: T2, RSV-F of RSV subtype A strain A2 (1540); assay: cell-based or functional assay; remark: listed apart in the source
[6] = molecular target: T4, RSV-F of RSV subtype B strain 1580 (respiratory syncytial virus subtype B, …); assay: cell-based or functional assay
[7] = molecular target: T5, RSV-F of RSV subtype B strain 9320 (respiratory syncytial virus subtype B, …); assay: cell-based or functional assay
[8] = molecular target: RSV-F of RSV subtype B strain 1400 (respiratory syncytial virus subtype B, …); assay: cell-based or functional assay
[9] = molecular target: RSV-F of RSV subtype B strain 1A2 (respiratory syncytial virus subtype B, …); assay: cell-based or functional assay
[10] = molecular target: T5, RSV-F of RSV subtype B strain 9320; assay: cell-based or functional assay; remark: listed apart in the source
[11] = molecular target: T3, RSV-F of RSV subtype A strain Long; assay: cell-based or functional assay; remark: listed apart in the source
[12] = molecular target: T2, RSV-F of RSV subtype A strain A2 (1540); assay: cell-based or functional assay; remark: listed apart in the source
[13] = molecular target: RSV-F of RSV subtype B strain 18537 (respiratory syncytial virus subtype B, …, UniProt P13843 26-574); assay: cell-based or functional assay
[14] = molecular target: RSV-F of RSV subtype A clinical isolate A2001/3-12 (respiratory syncytial virus subtype A, …); assay: cell-based or functional assay
[15] = molecular target: RSV-F of RSV subtype A clinical isolate A1998/3-2 (respiratory syncytial virus subtype A, …); assay: cell-based or functional assay
[16] = molecular target: RSV-F of RSV subtype A clinical isolate A2000/3-4 (respiratory syncytial virus subtype A, …); assay: cell-based or functional assay
[17] = molecular target: RSV-F of RSV subtype A clinical isolate A1997/12-35 (respiratory syncytial virus subtype A, …); assay: cell-based or functional assay
[18] = molecular target: RSV-F of RSV subtype A clinical isolate A2001/2-20 (respiratory syncytial virus subtype A, …); assay: cell-based or functional assay
[19] = molecular target: RSV-F of RSV subtype A clinical isolate A1998/12-21 (respiratory syncytial virus subtype A, …); assay: cell-based or functional assay
[20] = molecular target: T4, RSV-F of RSV subtype B strain 1580; assay: cell-based or functional assay; remark: listed apart in the source
[21] = molecular target: RSV-F S173Y of escape mutant RSV/A S173Y (respiratory syncytial virus subtype A, …, UniProt P03420 26-574); assay: cell-based or functional assay
[22] = molecular target: RSV-F T174K of escape mutant RSV/B T174K (respiratory syncytial virus subtype B, …); assay: cell-based or functional assay
[23] = molecular target: T2, RSV-F of RSV subtype A strain A2 (1540); assay: cell-based or functional assay; remark: listed apart in the source
[24] = molecular target: RSV-F S173T/T174K of escape mutant RSV/B S173T/T174K (respiratory syncytial virus subtype B, …); assay: cell-based or functional assay
[25] = molecular target: RSV-F S173T of escape mutant RSV/B S173T (respiratory syncytial virus subtype B, …); assay: cell-based or functional assay
[26] = molecular target: T2, RSV-F of RSV subtype A strain A2 (1540); assay: cell-based or functional assay; remark: listed apart in the source

B1: H1M3627N (antibody, V domains shown)
VH: EVQLVESGGGLVQPGGSLRLSCAASGFTISNYEMNWVRQAPGKGLEWVSYISTSGITIYYADSVQGRFTISRDNAKNSLYLQLNSLRAEDTAVYYCARGYCTNGVCYPHYYYSDMDVWGQGTTVTVSS
VL: DIQMTQSPSSLSASVGDRLTITCRASQTISTYLNWFQQKVGNAPKLLIYSTSSLQSGVPARFSGSGSGTDFTLTISSLQPEDFATYYCQQSYSSPPTFGQGTKVEIK
Kd (RSV-F.mmh [1]): 2.02 nM | koff (RSV-F.mmh [1]): 0.000523 s⁻¹ | kon (RSV-F.mmh [1]): 259000 M⁻¹ s⁻¹ | t½ (RSV-F.mmh [1]): 0.367 h | IC50 [pM] for RSV A2 Neutralization, Trial 1 [2]: 4 pM | IC50 [pM] for RSV A2 Neutralization, Trial 2 [2]: 4 pM | IC50 [pM] for RSV A2 Neutralization, Trial 3 [2]: 5 pM | IC50 [pM] for RSV A2 Neutralization, Trial 6 [2]: 10 pM

B2: H1H3627N (antibody, V domains shown)
VH: B1 VH
VL: B1 VL
Kd (RSV-F.mmh [3]): 0.581 nM | koff (RSV-F.mmh [3]): 0.000149 s⁻¹ | kon (RSV-F.mmh [3]): 256000 M⁻¹ s⁻¹ | t½ (RSV-F.mmh [3]): 1.3 h | RSV-Long Neutral. IC50 [pM] [4]: 7.3 pM | RSV-Long neutralization, Fold Improvement Relative to Control 1 [4]: 73 fold | RSV-A2 (1540) Neutral. IC50 [pM] [5]: 2.6 pM | RSV-A2 (1540) neutralization, Fold Improvement Relative to Control 1 [5]: 138 fold | RSV - 1580 Neutral. IC50 [pM] [6]: 6.7 pM | RSV - 1580 neutralization, Fold Improvement Relative to Control 1 [6]: 55 fold | RSV-9320 Neutral. IC50 [pM] [7]: 11 pM | RSV-9320 neutralization, Fold Improvement Relative to Control 1 [7]: 42 fold | IC50 [pM] for RSV A2 Neutralization, Trial 7 [2]: 3 pM

B3: Control II (motavizumab sequence) (antibody, V domains shown)
VH: QVTLRESGPALVKPTQTLTLTCTFSGFSLSTAGMSVGWIRQPPGKALEWLADIWWDDKKHYNPSLKDRLTISKDTSKNQVVLKVTNMDPADTATYYCARDMIFNFYFDVWGQGTTVTVSS
VL: DIQMTQSPSTLSASVGDRVTITCSASSRVGYMHWYQQKPGKAPKLLIYDTSKLASGVPSRFSGSGSGTEFTLTISSLQPDDFATYYCFQGSGYPFTFGGGTKVEIKR
IC50 (pM), RSV micro-neutralization, B/1400 [8]: 38 pM | IC50 (pM), RSV micro-neutralization, B/1A2 [9]: 40 pM | IC50 (pM), RSV micro-neutralization, B/9320 [10]: 76 pM | IC50 (pM), RSV micro-neutralization, A/Long [11]: 83 pM | IC50 (pM), RSV micro-neutralization, A/A2 [12]: 202 pM | IC50 (pM), RSV micro-neutralization, B/18537 [13]: 187 pM | RSV-Long Neutral. IC50 [pM] [4]: 65 pM | RSV-Long neutralization, Fold Improvement Relative to Control 1 [4]: 8.2 fold | RSV-A2 (1540) Neutral. IC50 [pM] [5]: 14 pM | RSV-A2 (1540) neutralization, Fold Improvement Relative to Control 1 [5]: 25 fold | IC50 (pM), RSV micro-neutralization, clinical isolate [14]: 129 pM | IC50 (pM), RSV micro-neutralization, clinical isolate [15]: 36 pM | IC50 (pM), RSV micro-neutralization, clinical isolate [16]: 88 pM | IC50 (pM), RSV micro-neutralization, clinical isolate [17]: 41 pM | IC50 (pM), RSV micro-neutralization, clinical isolate [18]: 74 pM | IC50 (pM), RSV micro-neutralization, clinical isolate [19]: 68 pM | Neutralization IC50, pM (microneutralization, wt subtype B) [20]: 260 pM | Neutralization IC50, pM (microneutralization, escape mutant) [21]: 170 pM | Neutralization IC50, pM (microneutralization, escape mutant) [22]: 108 pM | Neutralization IC50, pM (microneutralization, wt subtype A) [23]: 108 pM | Neutralization IC50, pM (microneutralization, escape mutant) [24]: 218 pM | Neutralization IC50, pM (microneutralization, escape mutant) [25]: 177 pM | RSV - 1580 Neutral. IC50 [pM] [6]: 43 pM | RSV - 1580 neutralization, Fold Improvement Relative to Control 1 [6]: 8.7 fold | RSV-9320 Neutral. IC50 [pM] [7]: 56 pM | RSV-9320 neutralization, Fold Improvement Relative to Control 1 [7]: 8.2 fold | IC50 [pM] for RSV A2 Neutralization, Trial 1 [2]: 50 pM | IC50 [pM] for RSV A2 Neutralization, Trial 2 [2]: 30 pM | IC50 [pM] for RSV A2 Neutralization, Trial 3 [2]: 23 pM | IC50 [pM] for RSV A2 Neutralization, Trial 4 [2]: 20 pM | IC50 [pM] for RSV A2 Neutralization, Trial 5 [2]: 12 pM | IC50 [pM] for RSV A2 Neutralization, Trial 6 [2]: 12 pM | IC50 [pM] for RSV A2 Neutralization, Trial 7 [2]: 12 pM

B4: H1M3622N (antibody, V domains shown)
VH: QVQLQQWGAGLLKPSETLSLTCAVYGGSLSDYYWSWIRQPPGKGLEWIGEINHSGDTNYDPSLKSRLTISVDTSKNQFSLKLNSVTAADTAVYYCASLYFNFWMWGRGALVTVSS
VL: DIVMTQTPLSSPVILGQPASISCRSSQSLVYSDGNTYLSWLQQRPGQPPRLLIYKISNRFSGVPDRFSGSGTGTDFTLKISRVEAEDVGIYYCMQTTQFPLTFGGGTKVEIK
Kd (RSV-F.mmh [1]): 2.38 nM | koff (RSV-F.mmh [1]): 9.13e-05 s⁻¹ | kon (RSV-F.mmh [1]): 38400 M⁻¹ s⁻¹ | t½ (RSV-F.mmh [1]): 2.12 h | IC50 [pM] for RSV A2 Neutralization, Trial 1 [2]: 320 pM | IC50 [pM] for RSV A2 Neutralization, Trial 2 [2]: 82 pM

B5: H1H3592P3 (antibody, V domains shown)
VH: EVQLVESGGDLVQPGRSLRLSCVASGFTFDDYAMHWVRQAPGKGLEWVSGVSWSGSTVGYADSVKGRFTVSRDNAQKSLYLQMNSLRAEDTALYYCVKDAYKFNYYYYGLDVWGQGTTVTVSS
VL: EIVMTQSPATLSVSPGERATLSCRASQTILSNLAWYLQKPGQAPRLLIYGASTRATGLPARFSGSGSGTEFTLTISSLQSEDFAVYYCQQYNNWPLTFGGGTKVEIK
IC50 (pM), RSV micro-neutralization, B/1400 [8]: 33 pM | IC50 (pM), RSV micro-neutralization, B/1A2 [9]: 48 pM | IC50 (pM), RSV micro-neutralization, B/9320 [10]: 151 pM | IC50 (pM), RSV micro-neutralization, A/Long [11]: 44 pM | IC50 (pM), RSV micro-neutralization, A/A2 [12]: 140 pM | IC50 (pM), RSV micro-neutralization, B/18537 [13]: 230 pM | Kd (RSV-F.mmh [3]): 8.43 nM | koff (RSV-F.mmh [3]): 0.000747 s⁻¹ | kon (RSV-F.mmh [3]): 88600 M⁻¹ s⁻¹ | t½ (RSV-F.mmh [3]): 0.25 h | RSV-Long Neutral. IC50 [pM] [4]: 15 pM | RSV-Long neutralization, Fold Improvement Relative to Control 1 [4]: 35 fold | RSV-A2 (1540) Neutral. IC50 [pM] [5]: 10 pM | RSV-A2 (1540) neutralization, Fold Improvement Relative to Control 1 [5]: 36 fold | IC50 (pM), RSV micro-neutralization, clinical isolate [14]: 66 pM | IC50 (pM), RSV micro-neutralization, clinical isolate [15]: 35 pM | IC50 (pM), RSV micro-neutralization, clinical isolate [16]: 50 pM | IC50 (pM), RSV micro-neutralization, clinical isolate [17]: 40 pM | IC50 (pM), RSV micro-neutralization, clinical isolate [18]: 43 pM | IC50 (pM), RSV micro-neutralization, clinical isolate [19]: 34 pM | Neutralization IC50, pM (microneutralization, wt subtype B) [20]: 290 pM | Neutralization IC50, pM (microneutralization, wt subtype A) [23]: 177 pM | IC50 of blocking viral fusion (antibody added after viral attachment at 4 C, infection read by ELISA) [26]: 0.23 nM | RSV - 1580 Neutral. IC50 [pM] [6]: 31 pM | RSV - 1580 neutralization, Fold Improvement Relative to Control 1 [6]: 12 fold | RSV-9320 Neutral. IC50 [pM] [7]: 100 pM | RSV-9320 neutralization, Fold Improvement Relative to Control 1 [7]: 4.6 fold | IC50 [pM] for RSV A2 Neutralization, Trial 7 [2]: 10 pM

B6: H1M3624N (antibody, V domains shown)
VH: QVQLEQSGAEVKKPGTSVRISCKASGDIFTGYYMNWVRQAPGQGLEWMGWINTNSGGTYFSQRFQGRVTLTRDTSIRTAYMELSRLRSDDTAVYYCARMFYDILTGSDVFDIWGQGTMVTVSS
VL: DIQMTQSPSSLSASVGDRVTITCRASQDIRNDLGWYHQKPGKAPKCLIYGASSLQSGVPSRFSGSGSGTEFTLTISSLQPEDFATYYCLQHKNYMYTFGQGTKLEIK
notes: also called H1M2634N
Kd (RSV-F.mmh [1]): 1.02 nM | koff (RSV-F.mmh [1]): 0.000183 s⁻¹ | kon (RSV-F.mmh [1]): 179000 M⁻¹ s⁻¹ | t½ (RSV-F.mmh [1]): 1.05 h | IC50 [pM] for RSV A2 Neutralization, Trial 1 [2]: 540 pM | IC50 [pM] for RSV A2 Neutralization, Trial 2 [2]: 270 pM | IC50 [pM] for RSV A2 Neutralization, Trial 3 [2]: 92 pM
